Measured values reported in publication PMC10088672 (2023).

Key:
[1] = biological target: T1, SARS-CoV-2 spike RBD, Wuhan-Hu-1 (SARS-CoV-2, UniProt P0DTC2 321-536); assay: BLI
[2] = biological target: T1, SARS-CoV-2 spike RBD, Wuhan-Hu-1; assay: BLI; remark: listed apart in the source

B1: NCV2SG48 monoclonal antibody (human IgG) (antibody, V domains shown)
VH: EVQLVESGGGLIQPGGSLRLSCAASGFIVSRNYMNWVRQAPGKGLEWVALIYSGGSTFYADSVKGRFTISRDNSKNTLYLQMNSLRAEDTAVYYCARDLVVYGLDYWGQGTLVTVSS
VL: AIQLTQSPSSLSASVGDRVTITCRASQGISSHLAWYQQKPGKAPKLLIFAASTLQSGVPSRFSGSGSGTDFTLTISSLQPEDFATYYCQHLNSNPPITFGQGTRLEIK
koff [1]: 0.00015 s⁻¹
Kd [2]: 2.5 nM

B2: NCV2SG53 monoclonal antibody (human IgG) (antibody, V domains shown)
VH: QVQMVESGGGLVRPGGSLRLSCAASGFTFSDYYMSWIRQAPGKGLEWISYISSSGSSMNYADSVKGRFTISRDNAKNSLFLQMNSLRAEDTAVYYCAREFDLTKIIMVPPYWGQGTLVTVSS
VL: AIQLTQSPSSLSASVGDRVTITCRASQGISSYLAWYQQKPGKAPKVLIYAASTLQSGVPSRFSGSGSGTDFTLTISSLQPEDFATYYCQQLKSYPLTFGGGTKVEIT
koff [1]: 0.00022 s⁻¹
Kd [2]: 2.6 nM
